Measurements taken from US20240270821A1, “GIP/GLP1/GCG TRI-RECEPTOR AGONISTS AND USES THEREOF” (priority 2023, published 2024).
Changes are numbered by the printed parent chain.

B1: Example 481 (peptide)
chain: YXQGTXTSDXXIXLDXKAQXXFIEXLIEGGPSSGEPEPSEG
modifications: synthetic construct; SITE 2: note = 2-Aminoisobutyric Acid; SITE 6: note = alpha-methyl-2-fluoro-L-phenylalanine; SITE 10: note = 3-(4-Pyridyl)-L-alanine; SITE 11: note = alpha-methyl-L-serine; SITE 13: note = alpha-methyl-leucine; SITE 16: note = L-ornithine; SITE 17: note = Lysine is chemically mo
B2: Example 474 (peptide)
chain: B1 chain with X21N, S39E
modifications: synthetic construct; SITE 2: note = 2-Aminoisobutyric Acid; SITE 6: note = alpha-methyl-2-fluoro-L-phenylalanine; SITE 10: note = 3-(4-Pyridyl)-L-alanine; SITE 11: note = alpha-methyl-L-serine; SITE 13: note = alpha-methyl-leucine; SITE 16: note = L-ornithine; SITE 17: note = Lysine is chemically mo
B3: Example 476 (peptide)
chain: B1 chain with X25Y, E37P, S39E
modifications: synthetic construct; SITE 2: note = 2-Aminoisobutyric Acid; SITE 6: note = alpha-methyl-2-fluoro-L-phenylalanine; SITE 10: note = 3-(4-Pyridyl)-L-alanine; SITE 11: note = alpha-methyl-L-serine; SITE 13: note = alpha-methyl-leucine; SITE 16: note = L-ornithine; SITE 17: note = Lysine is chemically mo
B4: Example 477 (peptide)
chain: B1 chain with X11S, X25Y, E37P, S39E
modifications: synthetic construct; SITE 2: note = 2-Aminoisobutyric Acid; SITE 6: note = alpha-methyl-2-fluoro-L-phenylalanine; SITE 10: note = 3-(4-Pyridyl)-L-alanine; SITE 13: note = alpha-methyl-leucine; SITE 16: note = L-ornithine; SITE 17: note = Lysine is chemically modified through conjugation of the epsil
B5: Example 502 (peptide)
chain: B1 chain with X25Y, E37P, E40G, G41T
modifications: synthetic construct; SITE 2: note = 2-Aminoisobutyric Acid; SITE 6: note = alpha-methyl-2-fluoro-L-phenylalanine; SITE 10: note = 3-(4-Pyridyl)-L-alanine; SITE 11: note = alpha-methyl-L-serine; SITE 13: note = alpha-methyl-leucine; SITE 16: note = L-ornithine; SITE 17: note = Lysine is chemically mo
B6: Example 482 (peptide)
chain: B1 chain with X21N, X25Y, E37P, S39E
modifications: synthetic construct; SITE 2: note = 2-Aminoisobutyric Acid; SITE 6: note = alpha-methyl-2-fluoro-L-phenylalanine; SITE 10: note = 3-(4-Pyridyl)-L-alanine; SITE 11: note = alpha-methyl-L-serine; SITE 13: note = alpha-methyl-leucine; SITE 16: note = L-ornithine; SITE 17: note = Lysine is chemically mo
B7: Example 489 (peptide)
chain: B1 chain with X11S, X25Y, E37P
modifications: synthetic construct; SITE 2: note = 2-Aminoisobutyric Acid; SITE 6: note = alpha-methyl-2-fluoro-L-phenylalanine; SITE 10: note = 3-(4-Pyridyl)-L-alanine; SITE 13: note = alpha-methyl-leucine; SITE 16: note = L-ornithine; SITE 17: note = Lysine is chemically modified through conjugation of the epsil
B8: Example 475 (peptide)
chain: B1 chain with X11S, E37P, S39E
modifications: synthetic construct; SITE 2: note = 2-Aminoisobutyric Acid; SITE 6: note = alpha-methyl-2-fluoro-L-phenylalanine; SITE 10: note = 3-(4-Pyridyl)-L-alanine; SITE 13: note = alpha-methyl-leucine; SITE 16: note = L-ornithine; SITE 17: note = Lysine is chemically modified through conjugation of the epsil
B9: Example 483 (peptide)
chain: YXQGTXTSDXXIXLDXKAQXNFIEYLIEGGPSSGEPPPEGE
modifications: synthetic construct; SITE 2: note = 2-Aminoisobutyric Acid; SITE 6: note = alpha-methyl-2-fluoro-L-phenylalanine; SITE 10: note = 3-(4-Pyridyl)-L-alanine; SITE 11: note = alpha-methyl-L-serine; SITE 13: note = alpha-methyl-leucine; SITE 16: note = L-ornithine; SITE 17: note = Lysine is chemically mo
B10: Example 503 (peptide)
chain: YXQGTXTSDXXIXLDXKAQXXFIEXLQEGGPSSGEPPPEGTE
modifications: synthetic construct; SITE 2: note = 2-Aminoisobutyric Acid; SITE 6: note = alpha-methyl-2-fluoro-L-phenylalanine; SITE 10: note = 3-(4-Pyridyl)-L-alanine; SITE 11: note = alpha-methyl-L-serine; SITE 13: note = alpha-methyl-leucine; SITE 16: note = L-ornithine; SITE 17: note = Lysine is chemically mo
B11: Example 522 (peptide)
chain: B10 chain with X25Y, Q27I, E39S
modifications: not fully specified; printed without C-terminal amide; synthetic construct; SITE 2: note = 2-Aminoisobutyric Acid; SITE 6: note = alpha-methyl-2-fluoro-L-phenylalanine; SITE 10: note = 3-(4-Pyridyl)-L-alanine; SITE 11: note = alpha-methyl-L-serine; SITE 13: note = alpha-methyl-leucine; SITE 16: note = L-ornithine; SITE 17: note = Lysine is chemically mo
B12: Example 504 (peptide)
chain: B10 chain with E39S
modifications: synthetic construct; SITE 2: note = 2-Aminoisobutyric Acid; SITE 6: note = alpha-methyl-2-fluoro-L-phenylalanine; SITE 10: note = 3-(4-Pyridyl)-L-alanine; SITE 11: note = alpha-methyl-L-serine; SITE 13: note = alpha-methyl-leucine; SITE 16: note = L-ornithine; SITE 17: note = Lysine is chemically mo
B13: Example 486 (peptide)
chain: YXQGTXTSDXSIXLDXKAQXAFIEYLEEGGPSSGEPPPS
modifications: synthetic construct; SITE 2: note = 2-Aminoisobutyric Acid; SITE 6: note = alpha-methyl-2-fluoro-L-phenylalanine; SITE 10: note = 3-(4-Pyridyl)-L-alanine; SITE 13: note = alpha-methyl-leucine; SITE 16: note = L-ornithine; SITE 17: note = Lysine is chemically modified through conjugation of the epsil

target: T1, human GIP receptor (human) (UniProt P48546); experiment: cell-based or functional assay
T1 sequence (looked up): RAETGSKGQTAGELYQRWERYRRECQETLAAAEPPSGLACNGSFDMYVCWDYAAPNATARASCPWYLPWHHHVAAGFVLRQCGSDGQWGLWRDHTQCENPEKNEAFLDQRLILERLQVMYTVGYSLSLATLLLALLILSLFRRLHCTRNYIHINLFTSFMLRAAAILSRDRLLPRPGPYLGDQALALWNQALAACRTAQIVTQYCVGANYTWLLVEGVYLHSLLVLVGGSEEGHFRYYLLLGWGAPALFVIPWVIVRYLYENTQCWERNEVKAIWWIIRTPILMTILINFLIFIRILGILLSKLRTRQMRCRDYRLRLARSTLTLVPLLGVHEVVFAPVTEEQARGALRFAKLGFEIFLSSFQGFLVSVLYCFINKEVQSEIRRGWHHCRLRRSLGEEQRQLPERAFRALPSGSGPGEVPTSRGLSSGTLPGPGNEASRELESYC

In order of rising Relative cAMP EC50, nM (0.1% casein):
1. B7  0.0121 nM
2. B2  0.0125 nM
3. B4  0.0127 nM
4. B3  0.0131 nM
5. B9  0.0133 nM
6. B6  0.0139 nM
7. B1  0.0164 nM
8. B8  0.0173 nM
9. B13  0.0262 nM

In order of falling cAMP Rel EC50 (receptor-expressing HEK-293 cells, 1% HSA):
1. B13  2.57 nM
2. B8  1.85 nM
3. B6  1.58 nM
4. B4  1.44 nM
5. B3  1.29 nM
6. B7  1.25 nM
7. B1  1.19 nM
8. B9  1.17 nM
9. B2  0.743 nM

In order of rising Relative cAMP EC50:
1. B11  0.033 nM
2. B5  0.0337 nM
3. B12  0.0364 nM
4. B10  0.0518 nM

In order of rising cAMP Rel EC50 (1% HSA):
1. B12  1.8 nM
2. B11  1.95 nM
3. B10  2.02 nM
4. B5  2.42 nM

target: hGLP-1R (Homo sapiens, UniProt P43220); experiment: cell-based or functional assay
Sequence (P43220 24-463): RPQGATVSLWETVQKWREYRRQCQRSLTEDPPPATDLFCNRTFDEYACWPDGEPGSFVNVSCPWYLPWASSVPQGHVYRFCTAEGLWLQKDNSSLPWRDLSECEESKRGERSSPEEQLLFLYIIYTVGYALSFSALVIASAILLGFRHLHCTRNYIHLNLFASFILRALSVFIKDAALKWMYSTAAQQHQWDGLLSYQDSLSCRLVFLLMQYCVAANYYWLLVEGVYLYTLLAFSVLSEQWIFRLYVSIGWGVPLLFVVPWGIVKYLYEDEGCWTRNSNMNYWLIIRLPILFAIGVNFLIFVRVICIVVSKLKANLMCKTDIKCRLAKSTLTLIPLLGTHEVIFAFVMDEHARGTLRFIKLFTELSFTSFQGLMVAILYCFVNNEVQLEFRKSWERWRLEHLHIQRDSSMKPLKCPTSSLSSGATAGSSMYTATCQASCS

In order of rising Relative cAMP EC50, nM (0.1% casein):
1. B3  0.164 nM
2. B7  0.172 nM
3. B4  0.173 nM
4. B6  0.177 nM
5. B9  0.188 nM
6. B1  0.204 nM
7. B2  0.236 nM
8. B8  0.254 nM
9. B13  0.375 nM

In order of falling cAMP Rel EC50 (receptor-expressing HEK-293 cells, 1% HSA):
1. B13  35 nM
2. B4  18.7 nM
3. B8  18.6 nM
4. B9  18.2 nM
5. B6  14.9 nM
6. B3  14.6 nM
7. B1  14.2 nM
8. B7  11.8 nM
9. B2  10.6 nM

In order of rising Relative cAMP EC50:
1. B12  0.253 nM
2. B5  0.326 nM
3. B11  0.51 nM
4. B10  0.525 nM

In order of falling cAMP Rel EC50 (1% HSA):
1. B11  35.5 nM
2. B5  30.6 nM
3. B10  26.1 nM
4. B12  16.5 nM

target: human glucagon receptor (human) (UniProt P47871); experiment: cell-based or functional assay
Sequence (P47871 26-477): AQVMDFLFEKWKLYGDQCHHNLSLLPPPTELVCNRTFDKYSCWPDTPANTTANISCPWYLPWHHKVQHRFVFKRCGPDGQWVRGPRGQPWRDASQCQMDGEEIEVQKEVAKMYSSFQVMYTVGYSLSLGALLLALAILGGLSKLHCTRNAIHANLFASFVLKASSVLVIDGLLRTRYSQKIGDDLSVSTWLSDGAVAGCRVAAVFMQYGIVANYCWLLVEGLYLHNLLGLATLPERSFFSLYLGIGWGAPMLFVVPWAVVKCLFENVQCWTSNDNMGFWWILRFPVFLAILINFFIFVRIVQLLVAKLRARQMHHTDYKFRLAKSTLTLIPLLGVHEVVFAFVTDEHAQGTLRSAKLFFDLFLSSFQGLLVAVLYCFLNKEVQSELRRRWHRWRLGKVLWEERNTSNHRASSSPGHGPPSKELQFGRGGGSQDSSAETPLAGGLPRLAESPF

In order of rising Relative cAMP EC50, nM (0.1% casein):
1. B1  1.22 nM
2. B3  1.34 nM
3. B6  1.41 nM
4. B9  1.77 nM
5. B8  2.24 nM
6. B7  2.31 nM
7. B2  3.88 nM
8. B13  4.43 nM
9. B4  5.26 nM

In order of rising cAMP Rel EC50 (receptor-expressing HEK-293 cells, 1% HSA):
1. B3  90.2 nM
2. B1  100 nM
3. B2  166 nM
4. B9  231 nM
5. B8  254 nM
6. B6  325 nM
7. B7  523 nM
8. B13  647 nM
9. B4  716 nM

In order of rising Relative cAMP EC50:
1. B12  2.83 nM
2. B5  3.8 nM
3. B10  3.98 nM
4. B11  6.32 nM

In order of rising cAMP Rel EC50 (1% HSA):
1. B12  162 nM
2. B10  233 nM
3. B5  395 nM
4. B11  441 nM
